Substitutions are numbered along the chain they refer to. Values belong to the molecule of their own block, whether it stands above or below them.
Biological target: T1, FGFR1c and the cofactor β-Klotho (Homo sapiens, UniProt P11362+Q86Z14)
T1 construct: host or cells: iLite FGF21 assay ready cells (genetically engineered reporter gene cell line)
Assay: dual-luciferase reporter gene assay in iLite FGF21 assay ready cells
Format: cell-based
Source text: iLite FGF21 assay ready cells (purchased from SAVR) is a genetically engineered reporter gene cell line that responds to signals downstream to FGF21 agonism through the expression of firefly luciferase. The receptor FGFR1c and the cofactor β-Klotho were co-overexpressed on the surface of iLite FGF21 assay ready cells and have undergone genetic optimization to enhance sensitivity, such that FGF21 will cause an increase in luciferase expression in a dose-response manner. The luciferase activity detection kit was purchased from Promega (catalog number #E2980).
iLite FGF21 assay ready cells were cultured adherently in basal medium (DMEM Gluta Max, purchased from Gibco) containing 10% fetal bovine serum (FBS, purchased from Gibco) and 1% penicillin/streptomycin (purchased from Gibco). For the activity determination experiment, […] cells per well and test samples such as FGF21 mutant proteins and FGF21 conjugate molecules modified with albumin-binding agent were added to all-white 96-well culture plates (purchased from Corning), and the chemiluminescence values were detected in a microplate reader according to the instructions of the luciferase activity detection kit. Finally, the half-maximal effective concentration (EC50) values of the tested samples were obtained by means of four-parameter fitting.

[1] = Example 11, four-parameter fitting
[2] = Example 6, four-parameter fitting

T1 sequence (P11362 22-822): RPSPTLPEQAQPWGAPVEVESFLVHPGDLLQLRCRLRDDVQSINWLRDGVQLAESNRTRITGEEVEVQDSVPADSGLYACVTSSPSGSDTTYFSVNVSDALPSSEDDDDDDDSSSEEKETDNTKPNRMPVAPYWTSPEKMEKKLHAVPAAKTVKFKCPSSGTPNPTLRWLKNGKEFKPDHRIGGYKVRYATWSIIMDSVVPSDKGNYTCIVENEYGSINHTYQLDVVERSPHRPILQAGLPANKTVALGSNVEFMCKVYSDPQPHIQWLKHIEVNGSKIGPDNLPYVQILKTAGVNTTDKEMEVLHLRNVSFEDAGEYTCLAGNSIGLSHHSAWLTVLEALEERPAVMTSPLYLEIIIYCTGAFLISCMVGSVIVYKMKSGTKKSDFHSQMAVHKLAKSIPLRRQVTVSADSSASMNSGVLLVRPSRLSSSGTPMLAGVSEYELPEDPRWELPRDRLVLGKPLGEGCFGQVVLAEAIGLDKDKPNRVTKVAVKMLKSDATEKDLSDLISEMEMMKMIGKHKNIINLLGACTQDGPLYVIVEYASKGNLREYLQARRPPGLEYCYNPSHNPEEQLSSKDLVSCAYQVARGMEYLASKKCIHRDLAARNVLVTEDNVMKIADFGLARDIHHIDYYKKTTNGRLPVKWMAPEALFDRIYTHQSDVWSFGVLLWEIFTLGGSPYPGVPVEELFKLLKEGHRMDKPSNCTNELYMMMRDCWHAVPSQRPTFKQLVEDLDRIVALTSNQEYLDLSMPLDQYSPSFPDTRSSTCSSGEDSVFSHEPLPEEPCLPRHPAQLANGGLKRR
T1 sequence (Q86Z14 whole entry): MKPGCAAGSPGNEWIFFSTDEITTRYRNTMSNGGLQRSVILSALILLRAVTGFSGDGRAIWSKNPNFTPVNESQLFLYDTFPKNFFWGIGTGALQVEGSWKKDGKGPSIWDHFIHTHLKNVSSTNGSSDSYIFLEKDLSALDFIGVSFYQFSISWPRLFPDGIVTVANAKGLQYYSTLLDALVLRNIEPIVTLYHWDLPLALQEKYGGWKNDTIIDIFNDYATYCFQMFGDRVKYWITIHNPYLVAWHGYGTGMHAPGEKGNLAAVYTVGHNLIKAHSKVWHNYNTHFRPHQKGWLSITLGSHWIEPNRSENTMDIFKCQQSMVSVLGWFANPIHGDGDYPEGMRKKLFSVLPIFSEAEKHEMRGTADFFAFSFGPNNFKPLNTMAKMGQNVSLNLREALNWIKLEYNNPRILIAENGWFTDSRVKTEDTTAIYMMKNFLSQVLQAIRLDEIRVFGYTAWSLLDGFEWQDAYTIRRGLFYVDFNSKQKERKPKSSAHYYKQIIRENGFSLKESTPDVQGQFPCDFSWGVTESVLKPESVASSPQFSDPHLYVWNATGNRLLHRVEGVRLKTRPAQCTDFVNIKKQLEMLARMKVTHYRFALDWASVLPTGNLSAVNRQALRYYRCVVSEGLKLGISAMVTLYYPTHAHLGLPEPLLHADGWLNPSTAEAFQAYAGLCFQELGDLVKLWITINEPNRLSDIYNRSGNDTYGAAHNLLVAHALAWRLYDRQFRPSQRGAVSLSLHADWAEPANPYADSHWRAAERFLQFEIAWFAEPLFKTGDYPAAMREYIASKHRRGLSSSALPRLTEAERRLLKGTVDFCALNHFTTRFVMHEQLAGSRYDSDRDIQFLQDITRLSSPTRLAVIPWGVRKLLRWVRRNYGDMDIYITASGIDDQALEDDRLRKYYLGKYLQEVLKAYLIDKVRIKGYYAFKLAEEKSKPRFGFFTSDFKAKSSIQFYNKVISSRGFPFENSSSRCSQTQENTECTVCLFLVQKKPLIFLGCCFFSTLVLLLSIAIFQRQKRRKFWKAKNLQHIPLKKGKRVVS

- EC50 [2]: 0.99 nM
B5: Compound 5.4: FGF21K122C mutant (SEQ NO: 8) modified by the albumin-binding agent of Example 2.1 (conjugate)
chain: HPIPDSSPLLQFGGQVRQRYLYTDDAQQTEAHLEIREDGTVGGAADQSPESLLQLKALKPGVIQILGVKTSRFLCQRPDGALYGSLHFDPEACSFRERLLEDGYNVYQSEAHGLPLHLPGNCSPHRDPAPRGPARFLPLPGLPPAPPEPPGILAPQPPDVGSSDPLSMVGGSQGRSPSYES
modifications: albumin-binding agent of Example 2.1

- EC50 [2]: 2.69 nM
B7: Compound 5.10: FGF21D46C mutant (SEQ NO: 7) modified by the albumin-binding agent of Example 2.3 (conjugate)
chain: B5 chain with D46C, C122K
modifications: albumin-binding agent of Example 2.3

- EC50 [2]: 1.4 nM
B11: Compound 5.12: FGF21H125C mutant (SEQ NO: 9) modified by the albumin-binding agent of Example 2.3 (conjugate)
chain: B5 chain with C122K, H125C
modifications: albumin-binding agent of Example 2.3

- EC50 [2]: 1.18 nM
B12: Compound 5.9: FGF21H125C mutant (SEQ NO: 9) modified by the albumin-binding agent of Example 2.2 (conjugate)
chain: B5 chain with C122K, H125C
modifications: albumin-binding agent conjugated

- EC50 [2]: 0.24 nM
B13: Compound 5.3: FGF21D46C mutant (SEQ NO: 7) modified by the albumin-binding agent of Example 2.1 (conjugate)
chain: B5 chain with D46C, C122K
modifications: albumin-binding agent of Example 2.1

- EC50 [2]: 1.02 nM
B14: Compound 5.14: FGF21K122C mutant (SEQ NO: 8) modified by the albumin-binding agent of Example 2.4 (conjugate)
chain: B5 chain
modifications: albumin-binding agent of Example 2.4

- EC50 [2]: 2.06 nM
B15: Compound 5.6: FGF21D38C mutant (SEQ NO: 6) modified by the albumin-binding agent of Example 2.2 (conjugate)
chain: B5 chain with D38C, C122K
modifications: albumin-binding agent conjugated

- EC50 [2]: 4.61 nM
B16: Compound 5.1: FGF21E30C mutant (SEQ NO: 5) modified by the albumin-binding agent of Example 2.1 (conjugate)
chain: B5 chain with E30C, C122K
modifications: albumin-binding agent of Example 2.1

- EC50 [1]: 0.07 nM
B18: Compound 10.1: PAS-FGF21 dimer: PAS15FGF21 (SEQ ID NO: 13) modified by the side chain of Example 8.3 (conjugate)
chain: SPCASPAAPAPASPAAHPIPDSSPLLQFGGQVRQRYLYTDDAQQTEAHLEIREDGTVGGAADQSPESLLQLKALKPGVIQILGVKTSRFLCQRPDGALYGSLHFDPEACSFRERLLEDGYNVYQSEAHGLPLHLPGNKSPHRDPAPRGPARFLPLPGLPPAPPEPPGILAPQPPDVGSSDPLSMVGGSQGRSPSYES
modifications: dimer; side chain of Example 8.3

Second part, the molecule before the results:

B1: Compound 10.5: PAS-FGF21 dimer: PAS200FGF21 (SEQ ID NO: 17) modified by the side chain of Example 8.3 (conjugate)
chain: SPCASPAAPAPASPAAPAPSAPAAASAAAPAAASAAASAPSAASAAASPAAPSAPPAAASPAAPSAPPAAASPAAPAPASPAASAPSAPAAASPAAPAPASPAAPAPSAPAAASAAAPAAASAAASAPSASAAASAAAPAAASAAASAPSAASSAASPAAPSAPPAAASPAAPSAPPAAASPAAPAPASPAAPAPSAPAAAHPIPDSSPLLQFGGQVRQRYLYTDDAQQTEAHLEIREDGTVGGAADQSPESLLQLKALKPGVIQILGVKTSRFLCQRPDGALYGSLHFDPEACSFRERLLEDGYNVYQSEAHGLPLHLPGNKSPHRDPAPRGPARFLPLPGLPPAPPEPPGILAPQPPDVGSSDPLSMVGGSQGRSPSYES
modifications: dimer; side chain of Example 8.3
- EC50 [1]: 0.15 nM

B2: Compound 12.5: Fatty acid-modified PAS-FGF21 dimer: PAS200FGF21 (SEQ ID NO: 17) modified by the side chain of Example 8.5 (conjugate)
chain: B1 chain
modifications: dimer; fatty acid side chain of Example 8.5
- EC50 (Example 13, four-parameter fitting): 0.09 nM

B3: Compound 10.2: PAS-FGF21 dimer: PAS30FGF21 (SEQ ID NO: 14) modified by the side chain of Example 8.3 (conjugate)
chain: SPCASPAAPAPASPAAPAPSAPAAASAAAPAHPIPDSSPLLQFGGQVRQRYLYTDDAQQTEAHLEIREDGTVGGAADQSPESLLQLKALKPGVIQILGVKTSRFLCQRPDGALYGSLHFDPEACSFRERLLEDGYNVYQSEAHGLPLHLPGNKSPHRDPAPRGPARFLPLPGLPPAPPEPPGILAPQPPDVGSSDPLSMVGGSQGRSPSYES
modifications: dimer; side chain of Example 8.3
- EC50 [1]: 0.04 nM

B4: Compound 10.4: PAS-FGF21 dimer: PAS100FGF21 (SEQ ID NO: 16) modified by the side chain of Example 8.3 (conjugate)
chain: SPCASPAAPAPASPAAPAPSAPAAASAAAPAAASAAASAPSAASAAASPAAPSAPPAAASPAAPSAPPAAASPAAPAPASPAASAPSAPAAASPAAPAPASHPIPDSSPLLQFGGQVRQRYLYTDDAQQTEAHLEIREDGTVGGAADQSPESLLQLKALKPGVIQILGVKTSRFLCQRPDGALYGSLHFDPEACSFRERLLEDGYNVYQSEAHGLPLHLPGNKSPHRDPAPRGPARFLPLPGLPPAPPEPPGILAPQPPDVGSSDPLSMVGGSQGRSPSYES
modifications: dimer; side chain of Example 8.3
- EC50 [1]: 0.13 nM

B6: Compound 5.13: FGF21D46C mutant (SEQ NO: 7) modified by the albumin-binding agent of Example 2.4 (conjugate)
chain: B5 chain with D46C, C122K
modifications: albumin-binding agent of Example 2.4
- EC50 [2]: 1.84 nM

B8: Compound 5.5: FGF21H125C mutant (SEQ NO: 9) modified by the albumin-binding agent of Example 2.1 (conjugate)
chain: B5 chain with C122K, H125C
modifications: albumin-binding agent of Example 2.1
- EC50 [2]: 0.52 nM

B9: Compound 5.2: FGF21D38C mutant (SEQ NO: 6) modified by the albumin-binding agent of Example 2.1 (conjugate)
chain: B5 chain with D38C, C122K
modifications: albumin-binding agent of Example 2.1
- EC50 [2]: 1.99 nM

B10: Compound 5.11: FGF21K122C mutant (SEQ NO: 8) modified by the albumin-binding agent of Example 2.3 (conjugate)
chain: B5 chain
modifications: albumin-binding agent of Example 2.3
- EC50 [2]: 2.09 nM

B17: Compound 5.8: FGF21K122C mutant (SEQ NO: 8) modified by the albumin-binding agent of Example 2.2 (conjugate)
chain: B5 chain
modifications: albumin-binding agent conjugated
- EC50 [2]: 1.13 nM

B19: Compound 10.3: PAS-FGF21 dimer: PAS50FGF21 (SEQ ID NO: 15) modified by the side chain of Example 8.3 (conjugate)
chain: SPCASPAAPAPASPAAPAPSAPAAASAAAPAAASAAASAPSAASAAASPAAHPIPDSSPLLQFGGQVRQRYLYTDDAQQTEAHLEIREDGTVGGAADQSPESLLQLKALKPGVIQILGVKTSRFLCQRPDGALYGSLHFDPEACSFRERLLEDGYNVYQSEAHGLPLHLPGNKSPHRDPAPRGPARFLPLPGLPPAPPEPPGILAPQPPDVGSSDPLSMVGGSQGRSPSYES
modifications: dimer; side chain of Example 8.3
- EC50 [1]: 0.02 nM

Source: patent publication EP4700044A1, “PROTEIN ANALOGUE AND USE THEREOF” (Shanghai Duomirui Biotechnology., Ltd., priority 2023, dated 2024)
